From patent US20100015126A1, “Methods of Binding of Cross-Beta Structures By Chaperones” (priority 2006, published 2010)

Tests used:
Test in all cases: cell-based or functional assay
[1] = target: synthetic human Aβ16-22 (6BB12) (human)
[2] = target: synthetic human Aβ25-35 (6BB6) (human)
synthetic peptide 6BB10 = target: synthetic peptide 6BB10
synthetic peptide 6BB11 = target: synthetic peptide 6BB11
synthetic peptide 6BB13 = target: synthetic peptide 6BB13
synthetic peptide 6BB9 = target: synthetic peptide 6BB9

Sequence of recombinant human BiP with C-terminal linker, FLAG-tag and His-tag (BiP-FLAG-His), P11021 19-654 (P11021 other isoform, or with tags, fused parts or gaps): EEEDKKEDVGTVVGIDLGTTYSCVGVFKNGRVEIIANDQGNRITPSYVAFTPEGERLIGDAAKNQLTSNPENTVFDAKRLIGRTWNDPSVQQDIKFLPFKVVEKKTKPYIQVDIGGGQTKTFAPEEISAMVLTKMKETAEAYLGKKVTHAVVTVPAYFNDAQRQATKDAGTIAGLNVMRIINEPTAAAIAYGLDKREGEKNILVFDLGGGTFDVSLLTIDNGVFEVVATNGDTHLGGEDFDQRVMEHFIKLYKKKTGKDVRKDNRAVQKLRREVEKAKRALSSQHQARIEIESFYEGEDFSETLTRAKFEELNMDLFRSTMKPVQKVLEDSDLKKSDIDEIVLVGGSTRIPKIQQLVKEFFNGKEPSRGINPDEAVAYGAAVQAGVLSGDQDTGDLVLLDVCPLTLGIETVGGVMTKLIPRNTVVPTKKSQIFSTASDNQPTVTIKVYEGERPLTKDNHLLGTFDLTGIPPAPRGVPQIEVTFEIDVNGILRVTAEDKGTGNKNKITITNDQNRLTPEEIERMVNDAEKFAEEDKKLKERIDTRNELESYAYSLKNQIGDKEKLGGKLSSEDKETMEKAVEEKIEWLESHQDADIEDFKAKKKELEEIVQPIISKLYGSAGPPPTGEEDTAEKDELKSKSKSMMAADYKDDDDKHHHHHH

recombinant human BiP with C-terminal linker, FLAG-tag and His-tag (BiP-FLAG-His), P11021 19-654
Binding to DCs (MFI ratio), BiP, Aβ16-22/Aβ25-35 + BiP [1]: 261 MFI ratio
Binding to DCs (MFI ratio), BiP, Aβ16-22/Aβ25-35 + BiP [2]: 261 MFI ratio
Binding to DCs (MFI ratio), BiP, mix of HSP70/BiP-binding peptides + BiP (synthetic peptide 6BB10): 1.8 MFI ratio
Binding to DCs (MFI ratio), BiP, mix of HSP70/BiP-binding peptides + BiP (synthetic peptide 6BB11): 1.8 MFI ratio
Binding to DCs (MFI ratio), BiP, mix of HSP70/BiP-binding peptides + BiP (synthetic peptide 6BB13): 1.8 MFI ratio
Binding to DCs (MFI ratio), BiP, mix of HSP70/BiP-binding peptides + BiP (synthetic peptide 6BB9): 1.8 MFI ratio
